B1: 5KPH (parent)
chain: EEKRQVKQVAKEKLLEQSPNSKVQVRRVQKQGNTIRVELELRTNGKKENYTVEVERQGNTWTVKRITRT

Variants of: B1
Experiment: folding stability dG (cDNA display proteolysis); higher = more stable
Conditions: PBS, room temperature

Going from EEKRQVKQVAKEKLLEQSPNSKVQVRRVQKQGNTICVELELRTNGKKENYTVEVERQGNTWTVKRITRT [R36C] to EEKRQVKQVAKEKLLEQSPNSKVQVRRVQKQGNTIDVELELRTNGKKENYTVEVERQGNTWTVKRITRT [R36D], the “folding stability dG” value falls from 3.57 kcal/mol to 2.45 kcal/mol.

Compared with EEKRQVKQVAKEKLLEQSPNSKVQVRRVQKQGNTIEVELELRTNGKKENYTVEVERQGNTWTVKRITRT [R36E], EEKRQVKQVAKEKLLEQSPNSKVQVRRVQKQGNTIFVELELRTNGKKENYTVEVERQGNTWTVKRITRT [R36F] is higher in “folding stability dG” value: 3.54 kcal/mol for the first, 4.35 kcal/mol for the second.

Compared with EEKRQVKQVAKEKLLEQSPNSKVQVRRVQKQGNTIGVELELRTNGKKENYTVEVERQGNTWTVKRITRT [R36G], EEKRQVKQVAKEKLLEQSPNSKVQVRRVQKQGNTIHVELELRTNGKKENYTVEVERQGNTWTVKRITRT [R36H] is higher in “folding stability dG” value: 2.54 kcal/mol for the first, 4.04 kcal/mol for the second.

Compared with EEKRQVKQVAKEKLLEQSPNSKVQVRRVQKQGNTIIVELELRTNGKKENYTVEVERQGNTWTVKRITRT [R36I], EEKRQVKQVAKEKLLEQSPNSKVQVRRVQKQGNTIKVELELRTNGKKENYTVEVERQGNTWTVKRITRT [R36K] is lower in “folding stability dG” value: 4.34 kcal/mol for the first, 4.23 kcal/mol for the second.

Compared with EEKRQVKQVAKEKLLEQSPNSKVQVRRVQKQGNTILVELELRTNGKKENYTVEVERQGNTWTVKRITRT [R36L], EEKRQVKQVAKEKLLEQSPNSKVQVRRVQKQGNTIMVELELRTNGKKENYTVEVERQGNTWTVKRITRT [R36M] is lower in “folding stability dG” value: 4.33 kcal/mol for the first, 4.23 kcal/mol for the second.

First: EEKRQVKQVAKEKLLEQSPNSKVQVRRVQKQGNTINVELELRTNGKKENYTVEVERQGNTWTVKRITRT [R36N]
Second: EEKRQVKQVAKEKLLEQSPNSKVQVRRVQKQGNTIPVELELRTNGKKENYTVEVERQGNTWTVKRITRT [R36P]
The “folding stability dG” value of the first is higher: 3.7 kcal/mol for the first, 0.344 kcal/mol for the second.

First: EEKRQVKQVAKEKLLEQSPNSKVQVRRVQKQGNTIQVELELRTNGKKENYTVEVERQGNTWTVKRITRT [R36Q]
Second: EEKRQVKQVAKEKLLEQSPNSKVQVRRVQKQGNTISVELELRTNGKKENYTVEVERQGNTWTVKRITRT [R36S]
The “folding stability dG” value of the first is lower: 3.75 kcal/mol for the first, 3.85 kcal/mol for the second.

First: EEKRQVKQVAKEKLLEQSPNSKVQVRRVQKQGNTITVELELRTNGKKENYTVEVERQGNTWTVKRITRT [R36T]
Second: EEKRQVKQVAKEKLLEQSPNSKVQVRRVQKQGNTIVVELELRTNGKKENYTVEVERQGNTWTVKRITRT [R36V]
The “folding stability dG” value of the first is lower: 3.9 kcal/mol for the first, 4.13 kcal/mol for the second.

Going from EEKRQVKQVAKEKLLEQSPNSKVQVRRVQKQGNTIWVELELRTNGKKENYTVEVERQGNTWTVKRITRT [R36W] to EEKRQVKQVAKEKLLEQSPNSKVQVRRVQKQGNTIYVELELRTNGKKENYTVEVERQGNTWTVKRITRT [R36Y], the “folding stability dG” value rises from 4.21 kcal/mol to 4.54 kcal/mol.

Going from EEKRQVKQVAKEKLLEQSPNSKVQVRRVQKQGNTIRAELELRTNGKKENYTVEVERQGNTWTVKRITRT [V37A] to EEKRQVKQVAKEKLLEQSPNSKVQVRRVQKQGNTIRCELELRTNGKKENYTVEVERQGNTWTVKRITRT [V37C], the “folding stability dG” value rises from 2.15 kcal/mol to 2.65 kcal/mol.

Compared with EEKRQVKQVAKEKLLEQSPNSKVQVRRVQKQGNTIRFELELRTNGKKENYTVEVERQGNTWTVKRITRT [V37F], EEKRQVKQVAKEKLLEQSPNSKVQVRRVQKQGNTIRGELELRTNGKKENYTVEVERQGNTWTVKRITRT [V37G] is lower in “folding stability dG” value: 2.39 kcal/mol for the first, 1.21 kcal/mol for the second.

First: EEKRQVKQVAKEKLLEQSPNSKVQVRRVQKQGNTIRHELELRTNGKKENYTVEVERQGNTWTVKRITRT [V37H]
Second: EEKRQVKQVAKEKLLEQSPNSKVQVRRVQKQGNTIRIELELRTNGKKENYTVEVERQGNTWTVKRITRT [V37I]
The “folding stability dG” value of the first is lower: -0.646 kcal/mol for the first, 3.5 kcal/mol for the second.

Compared with EEKRQVKQVAKEKLLEQSPNSKVQVRRVQKQGNTIRKELELRTNGKKENYTVEVERQGNTWTVKRITRT [V37K], EEKRQVKQVAKEKLLEQSPNSKVQVRRVQKQGNTIRLELELRTNGKKENYTVEVERQGNTWTVKRITRT [V37L] is higher in “folding stability dG” value: 0.177 kcal/mol for the first, 3.33 kcal/mol for the second.

Compared with EEKRQVKQVAKEKLLEQSPNSKVQVRRVQKQGNTIRMELELRTNGKKENYTVEVERQGNTWTVKRITRT [V37M], EEKRQVKQVAKEKLLEQSPNSKVQVRRVQKQGNTIRNELELRTNGKKENYTVEVERQGNTWTVKRITRT [V37N] is lower in “folding stability dG” value: 2.89 kcal/mol for the first, -0.204 kcal/mol for the second.

First: EEKRQVKQVAKEKLLEQSPNSKVQVRRVQKQGNTIRQELELRTNGKKENYTVEVERQGNTWTVKRITRT [V37Q]
Second: EEKRQVKQVAKEKLLEQSPNSKVQVRRVQKQGNTIRRELELRTNGKKENYTVEVERQGNTWTVKRITRT [V37R]
The “folding stability dG” value of the first is lower: -0.216 kcal/mol for the first, -0.176 kcal/mol for the second.

First: EEKRQVKQVAKEKLLEQSPNSKVQVRRVQKQGNTIRSELELRTNGKKENYTVEVERQGNTWTVKRITRT [V37S]
Second: EEKRQVKQVAKEKLLEQSPNSKVQVRRVQKQGNTIRTELELRTNGKKENYTVEVERQGNTWTVKRITRT [V37T]
The “folding stability dG” value of the first is lower: 0.645 kcal/mol for the first, 1.28 kcal/mol for the second.

Compared with EEKRQVKQVAKEKLLEQSPNSKVQVRRVQKQGNTIRWELELRTNGKKENYTVEVERQGNTWTVKRITRT [V37W], EEKRQVKQVAKEKLLEQSPNSKVQVRRVQKQGNTIRYELELRTNGKKENYTVEVERQGNTWTVKRITRT [V37Y] is higher in “folding stability dG” value: 1.87 kcal/mol for the first, 2.32 kcal/mol for the second.

Compared with EEKRQVKQVAKEKLLEQSPNSKVQVRRVQKQGNTIRVALELRTNGKKENYTVEVERQGNTWTVKRITRT [E38A], EEKRQVKQVAKEKLLEQSPNSKVQVRRVQKQGNTIRVCLELRTNGKKENYTVEVERQGNTWTVKRITRT [E38C] is higher in “folding stability dG” value: 3.62 kcal/mol for the first, 3.66 kcal/mol for the second.

First: EEKRQVKQVAKEKLLEQSPNSKVQVRRVQKQGNTIRVDLELRTNGKKENYTVEVERQGNTWTVKRITRT [E38D]
Second: EEKRQVKQVAKEKLLEQSPNSKVQVRRVQKQGNTIRVFLELRTNGKKENYTVEVERQGNTWTVKRITRT [E38F]
The “folding stability dG” value of the first is lower: 3.91 kcal/mol for the first, 4.66 kcal/mol for the second.

With EEKRQVKQVAKEKLLEQSPNSKVQVRRVQKQGNTIRVGLELRTNGKKENYTVEVERQGNTWTVKRITRT [E38G] the “folding stability dG” value was 3.2 kcal/mol.

Reference: the MegaScale stability set (Tsuboyama et al. 2023)
